Experiments:
[1] = molecular target: T1, murine PILRA, ectopically expressed on 293 cells (murine, UniProt Q2YFS3 32-302); assay: flow cytometry, 293 cells expressing target
T1 construct: also called mA
Experimental: (§1) Briefly, conditioned media containing antibodies were incubated with 293 cells for 30 min at 4° C., washed twice, and then detected with anti-mouse IgG Alexa 647.

[2] = molecular target: cynomolgus PILRA, ectopically expressed on 293 cells (cynomolgus monkey); assay: flow cytometry, 293 cells expressing target
cynomolgus PILRA, ectopically expressed on 293 cells (cynomolgus monkey), sequence (chain, as listed by the source): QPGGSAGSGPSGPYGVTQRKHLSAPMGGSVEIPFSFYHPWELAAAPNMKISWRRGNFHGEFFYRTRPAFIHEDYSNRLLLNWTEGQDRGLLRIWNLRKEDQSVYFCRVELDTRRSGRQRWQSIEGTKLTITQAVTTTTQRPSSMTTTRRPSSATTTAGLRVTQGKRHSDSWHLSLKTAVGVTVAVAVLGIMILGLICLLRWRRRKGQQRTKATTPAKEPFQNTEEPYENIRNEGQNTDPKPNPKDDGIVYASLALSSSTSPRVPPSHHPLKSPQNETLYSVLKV
Experimental: as §1

[3] = molecular target: T2, human PILRA, G78 variant, ectopically expressed on 293 cells (human, UniProt Q9UKJ1 20-303); assay: flow cytometry, 293 cells expressing target
T2 construct: the cells are labelled G78; also called hA G78 OE; hA
T2 sequence (Q9UKJ1 other isoform, or with tags, fused parts or gaps mutant): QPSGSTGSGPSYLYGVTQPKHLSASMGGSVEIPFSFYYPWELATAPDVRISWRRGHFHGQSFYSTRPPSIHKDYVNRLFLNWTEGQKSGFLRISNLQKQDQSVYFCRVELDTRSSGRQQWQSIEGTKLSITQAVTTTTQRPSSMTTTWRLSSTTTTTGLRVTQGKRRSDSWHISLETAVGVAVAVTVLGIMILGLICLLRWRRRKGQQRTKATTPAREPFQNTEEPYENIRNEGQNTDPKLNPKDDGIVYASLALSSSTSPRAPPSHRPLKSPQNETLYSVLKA
Experimental: as §1

[4] = molecular target: T3, murine PILRB, ectopically expressed on 293 cells (murine, UniProt Q2YFS2 29-224); assay: flow cytometry, 293 cells expressing target
T3 construct: whole, on cells; also called mB
T3 sequence (Q2YFS2 29-224): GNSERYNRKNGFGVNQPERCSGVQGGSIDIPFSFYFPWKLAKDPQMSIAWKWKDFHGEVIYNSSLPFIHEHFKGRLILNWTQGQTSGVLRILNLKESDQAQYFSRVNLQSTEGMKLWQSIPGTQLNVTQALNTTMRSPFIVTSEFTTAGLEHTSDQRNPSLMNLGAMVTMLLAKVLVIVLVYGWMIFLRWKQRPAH
Experimental: as §1

[5] = molecular target: T4, human PILRB, ectopically expressed on 293 cells (human, UniProt Q9UKJ0 20-227); assay: flow cytometry, 293 cells expressing target
T4 construct: also called hB
T4 sequence (Q9UKJ0 20-227): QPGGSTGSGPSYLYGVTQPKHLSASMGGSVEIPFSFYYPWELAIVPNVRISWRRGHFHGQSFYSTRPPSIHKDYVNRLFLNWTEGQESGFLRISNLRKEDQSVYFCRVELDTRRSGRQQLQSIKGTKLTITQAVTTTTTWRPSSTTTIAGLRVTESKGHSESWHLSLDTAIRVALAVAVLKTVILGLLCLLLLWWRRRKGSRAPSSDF
Experimental: as §1

[6] = molecular target: T5, human PILRA, c-term His-Avi tag (human, UniProt Q9UKJ1 20-197, limits assumed); assay: SPR (Biacore), antibody captured, PILRA as analyte
T5 construct: not shown: C-terminal His-Avi tag
T5 sequence (Q9UKJ1 20-197 limits assumed): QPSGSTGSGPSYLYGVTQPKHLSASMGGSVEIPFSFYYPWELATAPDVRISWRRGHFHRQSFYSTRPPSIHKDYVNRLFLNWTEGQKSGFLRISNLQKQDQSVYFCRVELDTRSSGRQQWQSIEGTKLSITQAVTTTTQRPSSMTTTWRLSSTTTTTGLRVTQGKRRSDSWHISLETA
Experimental: Experiments were performed to determine the kinetics of anti-PILRA antibody binding to human […]. The assay is depicted in FIG. 6. A rabbit anti-PILRA was used as a positive control, and H1 LALAPS was used as a negative control. Human PILRA (human PILRA, c-term His-Avi tag, 0.68 mg/mi) was used as the antigen. The running buffer was HBSTE/0.5% BSA, pH 7.4, and the regeneration solution was 10 mM glycine-HCl (pH 2.1). In the assay, antibodies were captured at 10 μg/ml by immobilized anti-huFc or anti-msFc on a Biacore CM5 chip, and human PILRA flowed at 33, 100, and 300 nM. The surface was regenerated after each analyte, and all curves were double-referenced with buffer injections.

[7] = molecular target: T2, human PILRA, G78 variant, ectopically …; assay: flow cytometry; blocking of NPDC1-hIgG1 binding to 293 cells expressing human PILRA G78

T1 sequence (Q2YFS3 32-302): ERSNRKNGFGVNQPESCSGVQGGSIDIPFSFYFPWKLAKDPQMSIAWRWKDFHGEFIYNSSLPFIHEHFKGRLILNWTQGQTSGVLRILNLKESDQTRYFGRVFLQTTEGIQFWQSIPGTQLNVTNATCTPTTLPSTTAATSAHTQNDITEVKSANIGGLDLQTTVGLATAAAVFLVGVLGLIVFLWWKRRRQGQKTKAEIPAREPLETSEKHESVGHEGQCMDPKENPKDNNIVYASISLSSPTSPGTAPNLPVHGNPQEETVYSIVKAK

Binder | binding result [1] | binding result [2] | EC50 [3] [µg/mL] | binding result [4] | binding result [5] | Kd [6] [nM] | koff [6] [s⁻¹] | kon [6] [M⁻¹ s⁻¹] | EC50 [2] [µg/mL] | IC50 [7] [µg/mL] | EC50 [5] [µg/mL] | t½ [6] [min]
E10 (antibody, V domains shown, phage campaign) VH: EVQLLESGGGLVKPGGSLRLSCAASGFTFSNYAMSWVRQAPGKGLEWVAVIYSGADTYYADSVKGRFTISRDDSKNTLYLQMNSLKTEDTAVYYCTRDIGLNYGDYELFDYWGQGTLVTVSS VL: DIVMTQSPLSLPVTPGEPASISCRSSQSLLHSNGYNYLDWYLQKPGQSPQLLIYDASNLETGVPDRFSGSGSGTDFTLKISRVEAEDVGVYYCMQGLQTPYVFGQGTKLEIK | no binding | no binding | 0.1 | no binding | no binding | 14.5 | 0.0016 | 110000 |  |  |  | 
A4 (antibody, V domains shown, phage campaign) VH: QVQLVQSGAEVKKPGSSVKVSCKASGYTFTGYAVNWVRQAPGQGLEWMGGIIPIFGTANYAQKFQGRVTITADESTSTAYMELSSLRSEDTAVYYCARNLGYSSGWSGYYYGMDVWGQGTMVTVSS VL: EIVMTQSPATLSVSPGERATLSCRASQSVSSNYLAWYQQKPGQAPRLLIYGASTRATGIPARFSGSGSGTEFTLTISSLQSEDFAVYYCQQYGSSSFTFGPGTKLEIK | no binding |  | 0.7 | no binding | no binding | 113 | 0.005 | 44000 | 1.3 | 0.32 |  | 
E5 (antibody, V domains shown) VH: QVQLVQSGAEVKKPGSSVKVSCKASGYTFTSYGINWVRQAPGQGLEWMGWINPNSGDTLYAQNFQGRVTITADESTSTAYMELSSLRSEDTAVYYCARGPEPYWYFDLWGRGTLVTVSS VL: EIVMTQSPATLSVSPGERATLSCRASQNIDSRFLAWYQQKPGQAPRLLIYGASTRATGIPARFSGSGSGTEFTLTISSLQSEDFAVYYCQQSFSTPLTFGGGTKVEIK | no binding | no binding | 0.1 | no binding |  | 76.2 | 0.0061 | 80000 |  | 0.22 | 0.3 | 
A12 (antibody, V domains shown, phage campaign) VH: QVQLVQSGAEVKKPGASVKVSCKASGYNFNDYYIHWVRQAPGQGLEWMGWISAYNGNTNYAQKLQGRVTMTRDTSTSTVYMELSSLRSEDTAVYYCARDGWYCSSSSCYTGSDYWGQGTLVTVSS VL: DIQMTQSPSSLSASVGDRVTITCRASQSISNYLNWYQQKPGKAPKLLIYGASTLHSGVPSRFSGSGSGTDFTLTISSLQPEDFATYYCQQSYSTPFTFGPGTKVDIK | no binding |  | 0.4 | no binding |  | 19.3 | 0.0012 | 63000 | 8.6 |  | 8.6 | 9.6
A15 (antibody, V domains shown, phage campaign) VH: QVQLVQSGAEVKKPGASVKVSCKASGGTFSNYGLTWVRQAPGQGLEWMGWINLNSGGTYYAQKFQGRVTMTRDTSTSTVYMELSSLRSEDTAVYYCARDRYSSGWYEGDAFDIWGQGTMVTVSS VL: DIQMTQSPSSLSASVGDRVTITCRASQGISNWLAWYQQKPGKAPKLLIYAASSLQSGVPSRFSGSGSGTDFTLTISSLQPEDFATYYCQQSYSTPWTFGPGTKVDIK | no binding |  | 0.2 | no binding |  |  |  |  | 11.1 | 0.27 | 10.5 | 
A1 (antibody, V domains shown, phage campaign) VH: QVQLVQSGAEVKKPGSSVKVSCKASGYTFINHDINWVRQAPGQGLEWMGWMNPNSGNTGYAQKFQGRVTITADESTSTAYMELSSLRSEDTAVYYCARDRRGSYYGLMDWFDPWGQGTLVTVSS VL: DIQMTQSPSSLSASVGDRVTITCRASQSISRWLAWYQQKPGKAPKLLIYDASNLETGVPSRFSGSGSGTDFTLTISSLQPEDFATYYCQQSYSTPSFGQGTKVEIK | no binding | no binding | 1.9 | no binding | no binding | 99.6 | 0.0038 | 38000 |  | 1.9 |  | 
